Data from the supplement of paper PMC7125110.
± gives the standard error. For part of these data: Variants at the floor of the assay were thinned out.

B1: glmS ribozyme (parent)
chain: AUAAAAGCGCCAGAACUACAGAAAUGUAGUUGACGAGGAGGAGGUUUAUCGAAUUUUCGGCGGAUGCCUCCAAA

Tests used:
Conditions in all cases: with glucosamine-6-phosphate
glucosamine-6-phosphate [1] = variants of: B1; assay: kcat; higher = faster cleavage; RNA array
Method in brief: (§1)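 Glucosamine-6-phosphate (40 μM to 10 mM) in HEPES/KCl/Mg(OAc)2 buffer was flowed over sequenced MiSeq chips, and tiles were imaged over ~14 h. Barcoded ribozyme variants there had been transcribed in situ by E. coli RNA polymerase and were tracked through a hybridised Cy3 probe at 37 °C. One- or two-exponential decay fits to per-tile medians, normalised to baseline and to non-cleaving reference variants, gave kobs. kcat and KM came from weighted Michaelis–Menten fits across concentrations.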

glucosamine-6-phosphate [2] = variants of: B1; assay: KM; higher = weaker cofactor use; RNA array
Method in brief: as §1

glucosamine-6-phosphate [3] = variants of: B1; assay: self-cleavage kobs at 640 uM GlcN6P; higher = faster cleavage; RNA array
Method in brief: as §1

glucosamine-6-phosphate [4] = variants of: B1; assay: self-cleavage kobs at 2500 uM GlcN6P; higher = faster cleavage; RNA array
Method in brief: as §1

glucosamine-6-phosphate [5] = variants of: B1; assay: self-cleavage kobs at 10000 uM GlcN6P; higher = faster cleavage; RNA array
Method in brief: as §1

glucosamine-6-phosphate [6] = variants of: B1; assay: self-cleavage kobs at 160 uM GlcN6P; higher = faster cleavage; RNA array
Method in brief: as §1

glucosamine-6-phosphate [7] = variants of: B1; assay: self-cleavage kobs at 40 uM GlcN6P; higher = faster cleavage; RNA array
Method in brief: as §1

AUAAAAGCGCCAGAACUACAGAAAUGUAGUUGACGAGGAGGAGGAUUAUCGAAUUUUCGGCGGUUGCCUCCAAA [U45A A64U]
kcat (glucosamine-6-phosphate [1]): 0.000543 ± 3.2e-05 s⁻¹
KM (glucosamine-6-phosphate [2]): 2140 ± 230 µM
self-cleavage kobs at 640 uM GlcN6P (glucosamine-6-phosphate [3]): 0.00013 ± 2.1e-05 s⁻¹
self-cleavage kobs at 2500 uM GlcN6P (glucosamine-6-phosphate [4]): 0.00029 ± 4.4e-05 s⁻¹
self-cleavage kobs at 10000 uM GlcN6P (glucosamine-6-phosphate [5]): 0.000447 ± 7.9e-05 s⁻¹

AUAAAAGCGCCAGAACUACAGAAAUGUAGUUGACGAGGAGGAGGUUUAUCGAAUUUUCGGCGGAUGAUUCCAAA [C67A C68U]
kcat (glucosamine-6-phosphate [1]): 0.000125 ± 1.7e-05 s⁻¹
KM (glucosamine-6-phosphate [2]): 497 ± 200 µM
self-cleavage kobs at 160 uM GlcN6P (glucosamine-6-phosphate [6]): 3.25e-05 ± 7.3e-06 s⁻¹
self-cleavage kobs at 640 uM GlcN6P (glucosamine-6-phosphate [3]): 6.61e-05 ± 5.3e-06 s⁻¹
self-cleavage kobs at 2500 uM GlcN6P (glucosamine-6-phosphate [4]): 0.000126 ± 9.8e-06 s⁻¹
self-cleavage kobs at 10000 uM GlcN6P (glucosamine-6-phosphate [5]): 0.000106 ± 1e-05 s⁻¹

AUAAAAGCGCGAGAACUACAGAAAUGUAGUUGACGAGGAGGAGGUUUAUCGAAUUUUCAGCGGAUGCCUCCAAA [C11G G59A]
kcat (glucosamine-6-phosphate [1]): 0.000401 ± 1.7e-05 s⁻¹
KM (glucosamine-6-phosphate [2]): 8670 ± 560 µM
self-cleavage kobs at 640 uM GlcN6P (glucosamine-6-phosphate [3]): 2.81e-05 ± 1e-05 s⁻¹
self-cleavage kobs at 2500 uM GlcN6P (glucosamine-6-phosphate [4]): 8.92e-05 ± 1.8e-05 s⁻¹
self-cleavage kobs at 10000 uM GlcN6P (glucosamine-6-phosphate [5]): 0.000215 ± 3.6e-05 s⁻¹

AUAAAAGCGUCAGAACUACAGAAAUGUAGUUGUCGAGGAGGAGGUUUAUCGAAUUUUCGGCGGAUGCCUCCAAA [C10U A33U]
kcat (glucosamine-6-phosphate [1]): 4.38e-05 ± 4e-06 s⁻¹
self-cleavage kobs at 40 uM GlcN6P (glucosamine-6-phosphate [7]): < 1e-05 s⁻¹
self-cleavage kobs at 2500 uM GlcN6P (glucosamine-6-phosphate [4]): 4.07e-05 ± 1.2e-05 s⁻¹
self-cleavage kobs at 10000 uM GlcN6P (glucosamine-6-phosphate [5]): 3.99e-05 ± 6.2e-06 s⁻¹

AUAAAAGCGCCAGUACUACAGAAAUGUAGCUGACGAGGAGGAGGUUUAUCGAAUUUUCGGCGGAUGCCUCCAAA [A14U U30C]
kcat (glucosamine-6-phosphate [1]): 2.9e-05 ± 1.4e-05 s⁻¹
self-cleavage kobs at 160 uM GlcN6P (glucosamine-6-phosphate [6]): < 1e-05 s⁻¹
self-cleavage kobs at 2500 uM GlcN6P (glucosamine-6-phosphate [4]): 4.54e-05 ± 1.8e-05 s⁻¹

AUAAAAGCGCCAGAACUACAGAAAUGUAGUUGACGAGGAGGAGGUUUAUCGAAUUAUCGGCGGAUUCCUCCAAA [U56A G66U]
kcat (glucosamine-6-phosphate [1]): 0.000875 ± 6.7e-05 s⁻¹
KM (glucosamine-6-phosphate [2]): 2780 ± 350 µM
self-cleavage kobs at 160 uM GlcN6P (glucosamine-6-phosphate [6]): 5.15e-05 ± 8.2e-06 s⁻¹
self-cleavage kobs at 640 uM GlcN6P (glucosamine-6-phosphate [3]): 0.000164 ± 1.8e-05 s⁻¹
self-cleavage kobs at 2500 uM GlcN6P (glucosamine-6-phosphate [4]): 0.000378 ± 4.5e-05 s⁻¹
self-cleavage kobs at 10000 uM GlcN6P (glucosamine-6-phosphate [5]): 0.000712 ± 6.7e-05 s⁻¹

AUAAAAGCGCCAAAACUACAGAAAUGUAGUUGACGAGGAGGAGGAUUAUCGAAUUUUCGGCGGAUGCCUCCAAA [G13A U45A]
kcat (glucosamine-6-phosphate [1]): 0.00257 ± 0.00041 s⁻¹
KM (glucosamine-6-phosphate [2]): 6910 ± 1400 µM
self-cleavage kobs at 160 uM GlcN6P (glucosamine-6-phosphate [6]): 5.26e-05 ± 9.7e-06 s⁻¹
self-cleavage kobs at 640 uM GlcN6P (glucosamine-6-phosphate [3]): 0.000237 ± 3.3e-05 s⁻¹
self-cleavage kobs at 2500 uM GlcN6P (glucosamine-6-phosphate [4]): 0.000649 ± 0.00012 s⁻¹
self-cleavage kobs at 10000 uM GlcN6P (glucosamine-6-phosphate [5]): 0.00152 ± 0.00022 s⁻¹

AUAAAAGCGCCAGAACUACAGAAAUGUAGUUGACGAGGAGGAGGUUUAUUGAAUUUUCGGCGGAUGCCACCAAA [C50U U69A]
kcat (glucosamine-6-phosphate [1]): 2.06e-05 ± 3.7e-06 s⁻¹
